± gives the standard deviation of the averaged measurements.
Tested on: ATP
Assay: switch fluorescence ratio, 500 uM ATP over buffer (Cy3 cluster intensity, sum of 5 cycles each) (fold (ratio)); higher = stronger signal-on switching upon ATP binding; sequences stand for … in TCGTCGGCAGCGTCAGATGTGTATAAGAGACAGTTTTTTTTTTTTTTTTTTTTTTTTT…TC
Conditions: aptamer strand: ATP DNA aptamer (quencher-CACCTGGGGGAGTATTGCGGAGGAAGG + anchor), 100 nM annealed; ATP concentration: 500 uM
Outline: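 After annealing to 100 nM quencher-labelled ATP aptamer, Cy3-labelled switching-strand clusters on a modified Illumina MiSeq flow-cell were imaged in selection buffer. A second image followed after 15 min with 500 uM ATP at 22 °C, and five such buffer/ATP cycles were done, each separated by NaOH stripping and re-annealing. The fluorescence ratio, averaged per switch-domain sequence, is summed target-cycle over summed buffer-cycle Cy3 intensity per cluster, with clusters outside 100-1000 RFU excluded.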
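Note: ATP exposure 15 min at 22 °C before imaging.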

| Sequence | switch fluorescence ratio |
| --- | --- |
| GCTTATTATT | 1.023 ± 0.0026 |
| GCTTCAAGGC | 1.03 ± 0.045 |
| GCTTCAATGT | 1.03 ± 0.067 |
| GCTTCCTGTG | 1.49 ± 0.036 |
| GCTTCGGAGA | 1.029 ± 0.0017 |
| GCTTCTAGCT | 0.969 ± 0.011 |
| GCTTCTGGCA | 0.999 ± 0.023 |
| GCTTGAGGCT | 0.959 ± 0.06 |
| GCTTGCTCAT | 1.018 ± 0.0094 |
| GCTTGGAAGC | 0.9909 ± 0.0089 |
| GCTTGTACGT | 1.021 ± 0.0096 |
| GCTTGTAGCT | 1.02 ± 0.0095 |
| GCTTGTAGGC | 0.994 ± 0.017 |
| GCTTGTAGGG | 0.969 ± 0.011 |
| GCTTGTATGA | 1.013 ± 0.0032 |
| GCTTGTTGTA | 0.998 ± 0.015 |
| GCTTTAACAC | 1.03 ± 0.014 |
| GCTTTATTAA | 1 ± 0.017 |
| GCTTTATTTT | 1.09 ± 0.19 |
| GCTTTCTGCG | 1.05 ± 0.042 |
| GCTTTGAATT | 0.985 ± 0.017 |
| GCTTTGCGCT | 0.988 ± 0.015 |
| GCTTTGGGGA | 1 ± 0.025 |

| Sequence | switch fluorescence ratio |
| --- | --- |
| GCTTTGTTTT | 1.12 ± 0.3 |
| GCTTTTAGTG | 1 ± 0.039 |
| GCTTTTGGGC | 0.963 ± 0.023 |
| GCTTTTTAAA | 0.95 ± 0.016 |
| GCTTTTTGGG | 0.963 ± 0.039 |
| GCTTTTTTGA | 0.993 ± 0.042 |
| GGAAAAATCG | 1.013 ± 0.0051 |
| GGAAAAATGA | 1 ± 0.034 |
| GGAAAAATGT | 1.01 ± 0.025 |
| GGAAAACCAG | 0.982 ± 0.048 |
| GGAAAAGTTC | 1 ± 0.058 |
| GGAAACCATT | 1.03 ± 0.024 |
| GGAAACTTTG | 1.04 ± 0.11 |
| GGAAAGACGA | 1.01 ± 0.016 |
| GGAAAGGTTT | 1.01 ± 0.064 |
| GGAAAGTGAT | 1.2 ± 0.26 |
| GGAAATTGTA | 0.986 ± 0.0059 |
| GGAACAGCTT | 0.983 ± 0.017 |
| GGAACGTATT | 1.0119 ± 8.1e-05 |
| GGAAGCGTTC | 1.03 ± 0.04 |
| GGAAGGCGGG | 1.11 ± 0.16 |
| GGAAGTGGGC | 1.0283 ± 0.00079 |
| GGAAGTTAGT | 0.98253 ± 0.00016 |

| Sequence | switch fluorescence ratio |
| --- | --- |
| GGAATAAAGT | 0.996 ± 0.021 |
| GGAATACTAG | 1.14 ± 0.053 |
| GGAATACTTT | 1.01 ± 0.028 |
| GGAATAGAGT | 1.02 ± 0.021 |
| GGAATCAGGG | 0.99 ± 0.07 |
| GGAATCCATG | 0.977 ± 0.0013 |
| GGAATGAAGT | 1.07 ± 0.049 |
| GGAATGCCGG | 1.02 ± 0.021 |
| GGAATGGTTT | 0.987 ± 0.064 |
| GGAATGTAGG | 0.99 ± 0.027 |
| GGAATGTTGG | 0.991 ± 0.032 |
| GGAATGTTTG | 0.977 ± 0.035 |
| GGAATTAAAT | 0.985 ± 0.027 |
| GGAATTATGA | 0.995 ± 0.024 |
| GGAATTATGT | 1.02 ± 0.041 |
| GGAATTCGAT | 1.004 ± 0.006 |
| GGAATTGGCG | 1.03 ± 0.023 |
| GGAATTGGGT | 0.99 ± 0.044 |
| GGACAAGAGA | 0.996 ± 0.038 |
| GGACAATATA | 1.003 ± 0.0016 |
| GGACAGAGGT | 1 ± 0.044 |
| GGACAGGGGT | 1.03 ± 0.073 |
| GGACATATTT | 1.03 ± 0.042 |

| Sequence | switch fluorescence ratio |
| --- | --- |
| GGACATGGAC | 0.9775 ± 0.0044 |
| GGACATGGGT | 1 ± 0.019 |
| GGACATTATA | 1.031 ± 0.0056 |
| GGACCAAGGT | 1.01 ± 0.014 |
| GGACGAGGTG | 0.9756 ± 0.0049 |
| GGACGCCTTG | 0.976 ± 0.029 |
| GGACGCCTTT | 0.9753 ± 0.0077 |
| GGACGCTATC | 3.89 ± 0.42 |
| GGACGGGTTA | 1 ± 0.016 |
| GGACGGTATG | 1.02 ± 0.031 |
| GGACGTTTTG | 0.98 ± 0.012 |
| GGACTAGGAG | 1.05 ± 0.012 |
| GGACTCCCAT | 1.23 ± 0.074 |
| GGACTTGCGA | 1.043 ± 0.0042 |
| GGACTTTAAG | 0.952 ± 0.046 |
| GGACTTTAAT | 1 ± 0.017 |
| GGAGAAAAGA | 0.9862 ± 0.0076 |
| GGAGAAATTT | 0.9816 ± 0.0062 |
| GGAGAACTTA | 1.04 ± 0.051 |
| GGAGAAGGCG | 0.994 ± 0.053 |
| GGAGAAGGGA | 0.973 ± 0.062 |
| GGAGACGGGA | 1.06 ± 0.016 |
| GGAGAGGGGA | 0.982 ± 0.014 |

| Sequence | switch fluorescence ratio |
| --- | --- |
| GGAGAGTCCG | 1.03 ± 0.036 |
| GGAGATATGT | 0.987 ± 0.026 |
| GGAGATTGGG | 0.9697 ± 0.0033 |
| GGAGATTGGT | 0.983 ± 0.024 |
| GGAGATTTTG | 1 ± 0.042 |
| GGAGCACGTG | 1.12 ± 0.058 |
| GGAGCATTTG | 1.27 ± 0.039 |
| GGAGCGGACG | 1 ± 0.016 |
| GGAGCTCGGG | 0.975 ± 0.038 |
| GGAGCTGCGT | 1.056 ± 0.0098 |
| GGAGGAGAGC | 0.994 ± 0.015 |
| GGAGGAGGGC | 0.909 ± 0.043 |
| GGAGGCCAGC | 1.05 ± 0.075 |
| GGAGGCGTTT | 0.996 ± 0.04 |
| GGAGGGAACT | 1.2 ± 0.34 |
| GGAGGGCAAA | 1.01 ± 0.025 |
| GGAGGGCACG | 0.967 ± 0.053 |
| GGAGGGGCTG | 1.02 ± 0.085 |
| GGAGGGGGCA | 0.9654 ± 0.0011 |
| GGAGGTAAGG | 0.973 ± 0.025 |
| GGAGGTGTGT | 1.02 ± 0.021 |
| GGAGGTTGGG | 0.958 ± 0.013 |
| GGAGTAAAGA | 0.992 ± 0.037 |

| Sequence | switch fluorescence ratio |
| --- | --- |
| GGAGTACGG | 1.03 ± 0.028 |
| GGAGTACGGC | 1.06 ± 0.052 |
| GGAGTATATC | 1.08 ± 0.073 |
| GGAGTATTTT | 1.12 ± 0.29 |
| GGAGTCACTG | 1.02 ± 0.017 |
| GGAGTCAGCG | 0.977 ± 0.025 |
| GGAGTCATTT | 1 ± 0.014 |
| GGAGTCGTTA | 1 ± 0.041 |
| GGAGTGAGCG | 0.995 ± 0.036 |
| GGAGTGAGGT | 0.999 ± 0.03 |
| GGAGTGCAG | 0.964 ± 0.025 |
| GGAGTTGTTA | 0.985 ± 0.013 |
| GGAGTTTTGA | 0.982 ± 0.02 |
| GGATAAGGGG | 1.02 ± 0.039 |
| GGATAAGGTT | 0.9871 ± 0.0022 |
| GGATACTAGT | 1.04 ± 0.069 |
| GGATAGGGGG | 0.9963 ± 0.0012 |
| GGATAGTCAG | 0.984 ± 0.016 |
| GGATATACTT | 1.03 ± 0.024 |
| GGATCATCGC | 1.027 ± 0.0065 |
| GGATCCATTC | 0.972 ± 0.019 |
| GGATCGGTCA | 1.016 ± 0.0089 |
| GGATCTTTTT | 1.03 ± 0.026 |

| Sequence | switch fluorescence ratio |
| --- | --- |
| GGATGAAGGG | 0.981 ± 0.022 |
| GGATGAGGCA | 1.02 ± 0.022 |
| GGATGAGTAT | 1.02 ± 0.058 |
| GGATGATGCA | 1.03 ± 0.028 |
| GGATGCAGTT | 0.99 ± 0.026 |
| GGATGCCGGG | 1 ± 0.043 |
| GGATGCCTTT | 0.977 ± 0.026 |
| GGATGCGGGA | 0.98 ± 0.028 |
| GGATGCTTTC | 1.02 ± 0.026 |
| GGATGGAAAG | 0.999 ± 0.015 |
| GGATGGATTG | 1.004 ± 0.0022 |
| GGATGGCTCG | 0.993 ± 0.051 |
| GGATGGGGAA | 0.998 ± 0.024 |
| GGATGGGGCA | 1 ± 0.023 |
| GGATGGGGCC | 0.995 ± 0.032 |
| GGATGGGGCG | 0.995 ± 0.027 |
| GGATGGTAGT | 1.01 ± 0.071 |
| GGATGGTGTT | 0.958 ± 0.026 |
| GGATGTGGGT | 1.011 ± 0.0037 |
